Measured values: PMC7337898

System: HrrA (phosphorylated response regulator) (Corynebacterium glutamicum ATCC 13032)
Assay: EMSA
Details: 20 mM Tris-HCl pH 7.5, 50 mM KCl, 10 mM MgCl2, 5% glycerol, 0.5 mM EDTA, 0.005% Triton X-100, 20 min, room temperature, 10 nM DNA with 5-1000 nM HrrA …

Substance | Kd (apparent Kd) [nM] | Kd (apparent Kd (text misprints 270 μM)) [nM]
PctaE | 125 | –
PcydA (Pcyd) | 350 | –
PhmuO | 196 | –
PsigC/katA | – | 271
